Measured values published in patent publication US20240141067A1 (RALLYBIO IPA, published 2024).

B1: RLYB212 (antibody, human IgG1, kappa, V domains shown)
VH: QVQLQQSGPGLVKPSQTLSLTCAISGDSVSSNSAAWNWIRQSPSRGLEWLGRTYFRSNWYNDYAASVKSRITINQDTSKNQLSLQLNSVTPEDTAVYYCARDGAWGGSSWWPGLPHHYYSGMDVWGQGTTVTVSS
VL: EIVLTQSPATLSLSPGERATLSCRASQSVSSYLAWYQQKPGQAPRLLIYDASKRATGIPARFSGSGSGTDFSLTIRSLEPEDFAVYYCQQRSDWQGLTFGGGTKVEIKR
notes: also called monoclonal RLYB212; monospecific monoclonal antibody RLYB212

What was measured:
[1] = target: APLDQ GPIIIa (murine integrin β3 humanized to carry the HPA-1a epitope, in GPIIb-IIIa) on APLDQ mouse platelets (mouse) (UniProt O54890); assay: flow cytometry saturation-binding curves on APLDQ platelets
[2] = target: APLDQ GPIIIa (murine integrin β3 humanized to carry the HPA-1a epitope, in GPIIb-IIIa) on APLDQ mouse platelets (mouse) (UniProt O54890); assay: flow cytometry saturation-binding curve on APLDQ homozygous platelets
[3] = target: T1, HPA-1a (Leu33 form of human GPIIIa / integrin β3, in GPIIb-IIIa) on HPA-1a/a human platelets (human, UniProt P05106 27-788; P08514 32-1039); assay: flow cytometry on washed human platelets, FITC goat anti-human IgG
T1 construct: whole, on cells; Native antigen on washed platelets from HPA-1a/a individuals; also called HPA-1a alloantigen; HPA-1a expressed on GPIIIa
T1 sequence (P05106 27-788, chain 1 of 2): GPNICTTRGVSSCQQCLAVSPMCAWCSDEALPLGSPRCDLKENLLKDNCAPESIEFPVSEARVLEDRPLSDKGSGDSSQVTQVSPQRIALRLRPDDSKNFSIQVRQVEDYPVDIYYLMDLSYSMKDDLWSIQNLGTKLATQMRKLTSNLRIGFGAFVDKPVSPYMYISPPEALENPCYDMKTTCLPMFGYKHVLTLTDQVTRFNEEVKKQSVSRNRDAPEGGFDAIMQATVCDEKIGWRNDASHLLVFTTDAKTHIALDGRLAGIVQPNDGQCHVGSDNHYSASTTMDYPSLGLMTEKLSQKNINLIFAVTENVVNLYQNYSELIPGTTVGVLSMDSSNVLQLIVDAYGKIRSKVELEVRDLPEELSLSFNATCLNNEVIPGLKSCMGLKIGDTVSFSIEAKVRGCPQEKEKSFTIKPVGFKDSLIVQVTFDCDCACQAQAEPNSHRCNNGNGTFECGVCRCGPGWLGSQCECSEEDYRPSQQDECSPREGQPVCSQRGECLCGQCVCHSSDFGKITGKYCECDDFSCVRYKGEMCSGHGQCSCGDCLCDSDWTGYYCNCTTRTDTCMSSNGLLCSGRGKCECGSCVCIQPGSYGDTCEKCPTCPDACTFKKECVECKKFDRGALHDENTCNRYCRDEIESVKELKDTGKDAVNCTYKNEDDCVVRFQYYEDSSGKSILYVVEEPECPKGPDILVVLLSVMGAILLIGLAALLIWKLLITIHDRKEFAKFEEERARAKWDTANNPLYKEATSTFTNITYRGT
T1 sequence (P08514 32-1039, chain 2 of 2): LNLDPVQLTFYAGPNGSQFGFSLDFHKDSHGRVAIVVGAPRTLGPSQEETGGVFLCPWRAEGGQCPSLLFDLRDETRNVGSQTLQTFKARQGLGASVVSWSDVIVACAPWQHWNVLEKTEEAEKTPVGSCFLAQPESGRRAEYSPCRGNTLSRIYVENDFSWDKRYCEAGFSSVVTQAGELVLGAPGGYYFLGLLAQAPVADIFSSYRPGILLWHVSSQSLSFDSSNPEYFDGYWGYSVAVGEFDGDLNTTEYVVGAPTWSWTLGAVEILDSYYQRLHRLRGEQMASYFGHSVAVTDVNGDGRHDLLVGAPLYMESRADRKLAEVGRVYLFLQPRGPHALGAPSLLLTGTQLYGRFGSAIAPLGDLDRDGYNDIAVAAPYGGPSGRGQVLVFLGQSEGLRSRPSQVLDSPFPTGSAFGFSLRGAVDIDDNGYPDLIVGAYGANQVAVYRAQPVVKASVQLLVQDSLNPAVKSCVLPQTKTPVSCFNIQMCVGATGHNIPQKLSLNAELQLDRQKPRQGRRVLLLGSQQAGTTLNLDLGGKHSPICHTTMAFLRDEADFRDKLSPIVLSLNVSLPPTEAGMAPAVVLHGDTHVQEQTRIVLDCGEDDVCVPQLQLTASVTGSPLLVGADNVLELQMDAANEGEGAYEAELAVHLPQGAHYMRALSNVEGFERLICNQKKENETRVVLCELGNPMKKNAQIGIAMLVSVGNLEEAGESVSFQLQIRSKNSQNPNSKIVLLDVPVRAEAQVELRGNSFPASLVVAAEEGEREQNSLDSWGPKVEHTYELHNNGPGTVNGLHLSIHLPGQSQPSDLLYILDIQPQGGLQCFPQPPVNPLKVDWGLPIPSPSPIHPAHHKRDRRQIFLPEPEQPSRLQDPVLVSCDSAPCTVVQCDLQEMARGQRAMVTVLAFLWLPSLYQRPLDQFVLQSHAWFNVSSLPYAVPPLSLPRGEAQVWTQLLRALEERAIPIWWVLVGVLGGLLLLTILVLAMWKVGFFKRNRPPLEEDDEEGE

APLDQ GPIIIa (murine integrin β3 humanized to carry the HPA-1a epitope, in GPIIb-IIIa) on APLDQ mouse platelets (mouse), sequence (O54890 26-787, chain 1 of 2): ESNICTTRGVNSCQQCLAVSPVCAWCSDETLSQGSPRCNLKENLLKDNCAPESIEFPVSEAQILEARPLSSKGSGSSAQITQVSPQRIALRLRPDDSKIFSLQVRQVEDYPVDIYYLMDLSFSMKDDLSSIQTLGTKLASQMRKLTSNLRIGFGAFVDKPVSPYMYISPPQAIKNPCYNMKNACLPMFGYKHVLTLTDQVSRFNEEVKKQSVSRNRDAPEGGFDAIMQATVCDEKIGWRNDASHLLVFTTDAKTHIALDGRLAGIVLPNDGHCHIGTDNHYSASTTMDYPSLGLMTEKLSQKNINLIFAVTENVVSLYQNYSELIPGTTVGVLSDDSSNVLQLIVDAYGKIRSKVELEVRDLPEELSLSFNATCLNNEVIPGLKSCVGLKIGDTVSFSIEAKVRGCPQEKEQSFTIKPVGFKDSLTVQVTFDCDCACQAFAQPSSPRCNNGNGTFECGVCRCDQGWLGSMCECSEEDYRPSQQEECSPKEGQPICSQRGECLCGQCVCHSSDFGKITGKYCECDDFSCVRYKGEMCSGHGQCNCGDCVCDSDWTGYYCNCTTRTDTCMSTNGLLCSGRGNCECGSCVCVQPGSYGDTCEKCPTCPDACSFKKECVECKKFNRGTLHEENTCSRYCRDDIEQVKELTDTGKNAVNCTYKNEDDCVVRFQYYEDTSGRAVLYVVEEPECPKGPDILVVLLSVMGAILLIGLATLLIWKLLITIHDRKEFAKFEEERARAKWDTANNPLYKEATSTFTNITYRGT
APLDQ GPIIIa (murine integrin β3 humanized to carry the HPA-1a epitope, in GPIIb-IIIa) on APLDQ mouse platelets (mouse), sequence (Q9QUM0 32-1033, chain 2 of 2, further chain): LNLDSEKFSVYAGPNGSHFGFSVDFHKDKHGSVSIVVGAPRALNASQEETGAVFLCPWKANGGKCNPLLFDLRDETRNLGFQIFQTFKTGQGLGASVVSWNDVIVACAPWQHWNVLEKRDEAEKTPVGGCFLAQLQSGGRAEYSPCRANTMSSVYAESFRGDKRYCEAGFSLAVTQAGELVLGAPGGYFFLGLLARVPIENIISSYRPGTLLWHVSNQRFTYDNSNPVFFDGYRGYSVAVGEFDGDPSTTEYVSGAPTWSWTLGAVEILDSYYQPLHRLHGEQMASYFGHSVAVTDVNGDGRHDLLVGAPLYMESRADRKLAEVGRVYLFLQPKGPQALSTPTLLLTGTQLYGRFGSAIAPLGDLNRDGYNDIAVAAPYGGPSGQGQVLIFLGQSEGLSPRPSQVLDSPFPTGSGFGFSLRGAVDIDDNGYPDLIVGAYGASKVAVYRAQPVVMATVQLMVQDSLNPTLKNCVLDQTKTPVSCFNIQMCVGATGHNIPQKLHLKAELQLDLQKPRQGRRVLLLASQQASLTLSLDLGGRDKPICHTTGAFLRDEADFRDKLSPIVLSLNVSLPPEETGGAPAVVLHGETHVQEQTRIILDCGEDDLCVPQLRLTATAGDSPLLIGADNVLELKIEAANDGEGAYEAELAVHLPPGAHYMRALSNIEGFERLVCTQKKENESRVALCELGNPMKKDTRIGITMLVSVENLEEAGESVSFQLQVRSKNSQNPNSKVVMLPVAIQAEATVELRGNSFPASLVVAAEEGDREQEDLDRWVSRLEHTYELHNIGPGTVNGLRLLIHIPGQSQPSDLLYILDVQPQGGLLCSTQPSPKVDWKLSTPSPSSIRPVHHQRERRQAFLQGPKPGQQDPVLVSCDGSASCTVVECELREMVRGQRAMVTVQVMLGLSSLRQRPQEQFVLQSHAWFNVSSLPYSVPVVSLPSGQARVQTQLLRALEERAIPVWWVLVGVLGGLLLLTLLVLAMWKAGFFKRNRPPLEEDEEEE

Row | Molecule | occupancy of available GPIIb-IIIa receptors at ~4 IU/mL [1] [%] | concentration that fully saturates GPIIb-IIIa receptors [2] [IU/ml] | binding result [3]
1 | RLYB211 (antibody) | < 10 | – | –
2 | B1 | < 10 | > 100 | binds
